Data taken from patent publication US20230086069A1 (SYSTIMMUNE, published 2023).

T1: rhesus CD19 on cells (CD20+ B cells of rhesus PBMC) (rhesus, UniProt F7F486 20-557)
T1 construct: also called Rhesus CD20+
T1 sequence: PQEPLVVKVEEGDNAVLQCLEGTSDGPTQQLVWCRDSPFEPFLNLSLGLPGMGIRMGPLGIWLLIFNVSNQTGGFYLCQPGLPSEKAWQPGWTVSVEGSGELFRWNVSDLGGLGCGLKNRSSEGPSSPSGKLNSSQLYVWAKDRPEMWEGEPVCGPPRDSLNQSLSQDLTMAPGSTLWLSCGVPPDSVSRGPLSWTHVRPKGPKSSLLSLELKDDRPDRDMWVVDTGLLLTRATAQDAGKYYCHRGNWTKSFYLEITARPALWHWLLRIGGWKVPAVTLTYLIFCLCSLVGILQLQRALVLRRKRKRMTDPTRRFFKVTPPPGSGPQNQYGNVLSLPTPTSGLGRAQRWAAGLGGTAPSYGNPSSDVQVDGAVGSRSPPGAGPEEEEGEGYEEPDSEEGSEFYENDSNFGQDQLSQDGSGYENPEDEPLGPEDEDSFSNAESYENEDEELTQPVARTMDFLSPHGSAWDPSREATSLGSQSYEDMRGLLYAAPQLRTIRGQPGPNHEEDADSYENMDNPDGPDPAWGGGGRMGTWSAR

T2: human CD19 protein (R&D Biosystems Cat #9269-CD-050) (human, UniProt P15391 20-291)
T2 sequence (looked up): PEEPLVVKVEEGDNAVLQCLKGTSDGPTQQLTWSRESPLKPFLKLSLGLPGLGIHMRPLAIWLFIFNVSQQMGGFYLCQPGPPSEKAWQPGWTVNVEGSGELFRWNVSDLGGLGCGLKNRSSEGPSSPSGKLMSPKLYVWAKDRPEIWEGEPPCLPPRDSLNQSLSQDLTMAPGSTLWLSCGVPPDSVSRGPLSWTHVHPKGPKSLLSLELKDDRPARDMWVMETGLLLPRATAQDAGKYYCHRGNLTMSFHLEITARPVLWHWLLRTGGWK

T3: human CD19 on cells (CD20+ B cells of human PBMC; Raji lymphoma cells) (human, UniProt P15391 20-556)
T3 construct: whole, on cells; also called Human CD20+
T3 sequence (looked up): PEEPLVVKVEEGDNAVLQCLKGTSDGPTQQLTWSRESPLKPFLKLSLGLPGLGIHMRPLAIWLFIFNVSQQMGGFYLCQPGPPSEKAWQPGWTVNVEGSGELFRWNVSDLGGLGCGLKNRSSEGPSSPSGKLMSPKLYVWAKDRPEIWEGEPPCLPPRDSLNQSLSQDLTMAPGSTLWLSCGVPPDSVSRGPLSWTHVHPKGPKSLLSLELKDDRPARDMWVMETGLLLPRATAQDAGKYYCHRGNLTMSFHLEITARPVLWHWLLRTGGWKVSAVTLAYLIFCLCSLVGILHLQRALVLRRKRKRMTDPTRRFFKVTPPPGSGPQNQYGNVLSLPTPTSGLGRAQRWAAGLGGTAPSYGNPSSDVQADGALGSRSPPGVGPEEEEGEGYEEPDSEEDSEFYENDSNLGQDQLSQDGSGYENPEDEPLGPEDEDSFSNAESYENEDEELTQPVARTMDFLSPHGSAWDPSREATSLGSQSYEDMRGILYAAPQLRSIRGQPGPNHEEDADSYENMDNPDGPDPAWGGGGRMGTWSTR


How the values were obtained:
[1] = target: T1, rhesus CD19 on cells (CD20+ B cells of …); test: flow cytometry, dose response on rhesus CD20+ lymphocytes
Experimental: (§1) To determine if the humanization alters the cross reactivity, the flow cytometry was carried out. The SI-63C2 antibody was used to bind the peripheral blood mononuclear cells derived from human, cynomolgus, and rhesus, respectively. Lymphocytes were gated based on forward and side scatter, followed by single cells based on the ratio of forward scatter signal height and area. Viable CD20+ B-cell and CD20− lymphocytes are gated based on the exclusion of membrane permeable amine reactive dye and the binding level of CD20 antibody (clone 2H7, Biolegend). Binding of the labelled antibody was determined as the geometric mean fluorescence intensity (gMFI) of the cell population for the fluorescent conjugate's emission channel. As shown in the histogram analysis in FIG. 4, the SI-63C2 antibody binds to CD20+ B cells from human, cynomolgus, and rhesus (4A) but not to their CD20− lymphocytes (4B).

[2] = target: T2, human CD19 protein (R&D Biosystems Cat …); test: BLI (Octet), antibody on anti-human Fc biosensor, human CD19 as analyte
Experimental: (§2) The purified SI-63C1, SI-63C2, and SI-34C1 antibodies were tested for their binding affinity using biolayer interferometry (ForteBio OctetRED 384). The antibodies were bound to anti-human Fc biosensors, and human CD19 protein (R&D Biosystems Cat #9269-CD-050) was used as the analyte in a 4-point series of 2-fold dilutions with the highest concentration starting at 200 nM.

[3] = target: T2, human CD19 protein (R&D Biosystems Cat …); test: BLI (Octet), antibody on anti-human Fc biosensors, CD19 protein as analyte; human CD19
Experimental: as §2

[4] = target: T3, human CD19 on cells (CD20+ B cells of …); test: flow cytometry, dose response on human CD20+ lymphocytes; human CD20+ lymphocytes
Experimental: as §1

[5] = target: T4, cynomolgus CD19 on cells (CD20+ B cells of cynomolgus PBMC) (cynomolgus); test: flow cytometry, dose response on cynomolgus CD20+ lymphocytes
T4 construct: whole, on cells; also called Cynomolgus CD20+
Experimental: as §1

[6] = target: T3, human CD19 on cells (CD20+ B cells of …); test: flow cytometry, dose response on human CD20+ lymphocytes
Experimental: as §1

EC50 [1] | Kd [2] | koff [2] | kon [2] | Kd [3] | EC50 [4] | EC50 [5] | EC50 [6] | Binder
0.666 µg/mL | 3.77 nM | 0.000229 s⁻¹ | 60800 M⁻¹ s⁻¹ | 3.8 nM | 0.0397 µg/mL | 2.9 µg/mL |  | SI-63C2 (recombinant mAb with H1 humanized anti-CD19 variable sequence) (antibody, V domains shown, H1 VH/VL on human kappa and human IgG CH1-Fc; also called SI-huCD19; humanized BU12, H1) VH: QVTLKESGPGLVQPGQTLRLTCAFSGFSLSTSGMGVGWIRQPPGKGLEWLAHIWWDDDKRYNPALKSRLTISKDTSKNQVYLQMNSLDAEDTAVYYCARMELWSYYFDYWGQGTLVTVSS VL: ENVLTQSPASLSASPGERVTITCSASSSVSYMHWYQQKPGQAPKLWIYDTSKLASGVPSRFSGSGSGNDHTLTISSMEPEDFATYYCFQGSVYPFTFGQGTKLEIKR
0.991 µg/mL | 3.06 nM | 0.000209 s⁻¹ | 68100 M⁻¹ s⁻¹ |  |  | 0.909 µg/mL | 0.231 µg/mL | SI-63C1 (recombinant chimeric mAb with BU12 mouse parental anti-CD19 variable sequence) (antibody, V domains shown, Mouse BU12 variable regions on human kappa and human IgG CH1-Fc; also called BU12-chimeric; SI-63C1-AF647) VH: QVTLKESGPGILQPSQTLSLTCSFSGFSLSTSGMGVGWIRQPSGKGLEWLAHIWWDDDKRYNPALKSRLTISKDTSSNQVFLKIASVDTADTAAYYCARMELWSYYFDYWGQGTTLTVSS VL: ENVLTQSPAIMSASPGEKVTMTCSASSSVSYMHWYQQKSSTSPKLWIYDTSKLASGVPGRFSGSGSGNSHFLTISSMEAEDVATYYCFQGSVYPFTFGSGTKLEIKR
